PMC11315935, “Multi-layered heterochromatin interaction as a switch for DIM2-mediated DNA methylation” (Nature Communications, 2024)

System: (CTA)12/(TAG)12 36-mer DNA duplex
Experiment: In vitro DNA methylation assay of DIM2 (WT or mutant)
Format: biochemical
Parameters: DNA methylation activity: unit not given here
Details: 30 min, pH 8.0; for DNA methylation activity of DIM2 (in words): 1.0 µM DIM2, 30 °C; for DNA methylation activity: Fig. 6d, H3_1-24K9me3 binding-associated mutants, 1.0 µM DIM2, 1.0 µM DNA duplex, 30 °C

Molecule	DNA methylation activity of DIM2 (in words)	DNA methylation activity (replicate 1)	DNA methylation activity (replicate 2)	DNA methylation activity (replicate 3)
DIM2W261A/W581A: DIM2 with W261A/W581A double mutation (protein, left off: His6, N-terminal, cleaved | MBP, N-terminal, cleaved, DIM2 with W261A/W581A double mutation) MDSPDRSHGGMFIDVPAETMGFQEDYLDMFASVLSQGLAKEGDYAHHQPLPAGKEECLEPIAVATTITPSPDDPQLQLQLELEQQFQTESGLNGVDPAPAPESEDEADLPDGFSDESPDDDFVVQRSKHITVDLPVSTLINPRSTFQRIDENDNLVPPPQSTPERVAVEDLLKAAKAAGKNKEDYIEFELHDFNFYVNYAYHPQEMRPIQLVATKVLHDKYYFDGVLKYGNTKHYVTGMQVLELPVGNYGASLHSVKGQIAVRSKHNAKKEIYYLLKKPAFEYQRYYQPFLWIADLGKHVVDYCTRMVERKREVTLGCFKSDFIQWASKAHGKSKAFQNWRAQHPSDDFRTSVAANIGYIWKEINGVAGAKRAAGDQLFRELMIVKPGQYFRQEVPPGPVVTEGDRTVAATIVTPYIKECFGHMILGKVLRLAGEDAEKEKEVKLAKRLKIENKNATKADTKDDMKNDTATESLPTPLRSLPVQVLEATPIESDIVSIVSSDLPPSENNPPPLTNGSVKPKAKANPKPKPSTQPLHAAHVKYLSQELVNKIKVGDVISTPRDDSSNTDTKWKPTDTDDHRAFGLVQRVHTAKTKSSGRGLNSKSFDVIWFYRPEDTPCCAMKYKWRNELFLSNHCTCQEGHHARVKGNEVLAVHPVDWFGTPESNKGEFFVRQLYESEQRRWITLQKDHLTCYHNQPPKPPTAPYKPGDTVLATLSPSDKFSDPYEVVEYFTQGEKETAFVRLRKLLRRRKVDRQDAPANELVYTEDLVDVRAERIVGKCIMRCFRPDERVPSPYDRGGTGNMFFITHRQDHGRCVPLDTLPPTLRQGFNPLGNLGKPKLRGMDLYCGGGNFGRGLEEGGVVEMRWANDIWDKAIHTYMANTPDPNKTNPFLGSVDDLLRLALEGKFSDNVPRPGEVDFIAAGSPCPGFSLLTQDKKVLNQVKNQSLVASFASFVDFYRPKYGVLENVSGIVQTFVNRKQDVLSQLFCALVGMGYQAQLILGDAWAHGAPQSRERVFLYFAAPGLPLPDPPLPSHSHYRVKNRNIGFLCNGESYVQRSFIPTAFKFVSAGEGTADLPKIGDGKPDACVRFPDHRLASGITPYIRAQYACIPTHPYGMNFIKAWNNGNGVMSKSDRDLFPSEGKTRTSDASVGWKRLNPKTLFPTVTTTSNPSDARMGPGLHWDEDRPYTVQEMRRAQGYLDEEVLVGRTTDQWKLVGNSVSRHMALAIGLKFREAWLGTLYD	largely abolished the DNA methylation activity	0.373	0.344	0.323
DIM2N1050A: DIM2 with mutation in the bridging loop (N1050A) (protein, left off: His6, N-terminal, cleaved | MBP, N-terminal, cleaved) MDSPDRSHGGMFIDVPAETMGFQEDYLDMFASVLSQGLAKEGDYAHHQPLPAGKEECLEPIAVATTITPSPDDPQLQLQLELEQQFQTESGLNGVDPAPAPESEDEADLPDGFSDESPDDDFVVQRSKHITVDLPVSTLINPRSTFQRIDENDNLVPPPQSTPERVAVEDLLKAAKAAGKNKEDYIEFELHDFNFYVNYAYHPQEMRPIQLVATKVLHDKYYFDGVLKYGNTKHYVTGMQVLELPVGNYGASLHSVKGQIWVRSKHNAKKEIYYLLKKPAFEYQRYYQPFLWIADLGKHVVDYCTRMVERKREVTLGCFKSDFIQWASKAHGKSKAFQNWRAQHPSDDFRTSVAANIGYIWKEINGVAGAKRAAGDQLFRELMIVKPGQYFRQEVPPGPVVTEGDRTVAATIVTPYIKECFGHMILGKVLRLAGEDAEKEKEVKLAKRLKIENKNATKADTKDDMKNDTATESLPTPLRSLPVQVLEATPIESDIVSIVSSDLPPSENNPPPLTNGSVKPKAKANPKPKPSTQPLHAAHVKYLSQELVNKIKVGDVISTPRDDSSNTDTKWKPTDTDDHRWFGLVQRVHTAKTKSSGRGLNSKSFDVIWFYRPEDTPCCAMKYKWRNELFLSNHCTCQEGHHARVKGNEVLAVHPVDWFGTPESNKGEFFVRQLYESEQRRWITLQKDHLTCYHNQPPKPPTAPYKPGDTVLATLSPSDKFSDPYEVVEYFTQGEKETAFVRLRKLLRRRKVDRQDAPANELVYTEDLVDVRAERIVGKCIMRCFRPDERVPSPYDRGGTGNMFFITHRQDHGRCVPLDTLPPTLRQGFNPLGNLGKPKLRGMDLYCGGGNFGRGLEEGGVVEMRWANDIWDKAIHTYMANTPDPNKTNPFLGSVDDLLRLALEGKFSDNVPRPGEVDFIAAGSPCPGFSLLTQDKKVLNQVKNQSLVASFASFVDFYRPKYGVLENVSGIVQTFVNRKQDVLSQLFCALVGMGYQAQLILGDAWAHGAPQSRERVFLYFAAPGLPLPDPPLPSHSHYRVKNRNIGFLCAGESYVQRSFIPTAFKFVSAGEGTADLPKIGDGKPDACVRFPDHRLASGITPYIRAQYACIPTHPYGMNFIKAWNNGNGVMSKSDRDLFPSEGKTRTSDASVGWKRLNPKTLFPTVTTTSNPSDARMGPGLHWDEDRPYTVQEMRRAQGYLDEEVLVGRTTDQWKLVGNSVSRHMALAIGLKFREAWLGTLYD	marked decrease of the DNA methylation activity	5.118	5.385	5.072
DIM2K362A: DIM2 with H3K9me3-binding site mutation in the RFTS domain (K362A) (protein, left off: His6, N-terminal, cleaved | MBP, N-terminal, cleaved) MDSPDRSHGGMFIDVPAETMGFQEDYLDMFASVLSQGLAKEGDYAHHQPLPAGKEECLEPIAVATTITPSPDDPQLQLQLELEQQFQTESGLNGVDPAPAPESEDEADLPDGFSDESPDDDFVVQRSKHITVDLPVSTLINPRSTFQRIDENDNLVPPPQSTPERVAVEDLLKAAKAAGKNKEDYIEFELHDFNFYVNYAYHPQEMRPIQLVATKVLHDKYYFDGVLKYGNTKHYVTGMQVLELPVGNYGASLHSVKGQIWVRSKHNAKKEIYYLLKKPAFEYQRYYQPFLWIADLGKHVVDYCTRMVERKREVTLGCFKSDFIQWASKAHGKSKAFQNWRAQHPSDDFRTSVAANIGYIWAEINGVAGAKRAAGDQLFRELMIVKPGQYFRQEVPPGPVVTEGDRTVAATIVTPYIKECFGHMILGKVLRLAGEDAEKEKEVKLAKRLKIENKNATKADTKDDMKNDTATESLPTPLRSLPVQVLEATPIESDIVSIVSSDLPPSENNPPPLTNGSVKPKAKANPKPKPSTQPLHAAHVKYLSQELVNKIKVGDVISTPRDDSSNTDTKWKPTDTDDHRWFGLVQRVHTAKTKSSGRGLNSKSFDVIWFYRPEDTPCCAMKYKWRNELFLSNHCTCQEGHHARVKGNEVLAVHPVDWFGTPESNKGEFFVRQLYESEQRRWITLQKDHLTCYHNQPPKPPTAPYKPGDTVLATLSPSDKFSDPYEVVEYFTQGEKETAFVRLRKLLRRRKVDRQDAPANELVYTEDLVDVRAERIVGKCIMRCFRPDERVPSPYDRGGTGNMFFITHRQDHGRCVPLDTLPPTLRQGFNPLGNLGKPKLRGMDLYCGGGNFGRGLEEGGVVEMRWANDIWDKAIHTYMANTPDPNKTNPFLGSVDDLLRLALEGKFSDNVPRPGEVDFIAAGSPCPGFSLLTQDKKVLNQVKNQSLVASFASFVDFYRPKYGVLENVSGIVQTFVNRKQDVLSQLFCALVGMGYQAQLILGDAWAHGAPQSRERVFLYFAAPGLPLPDPPLPSHSHYRVKNRNIGFLCNGESYVQRSFIPTAFKFVSAGEGTADLPKIGDGKPDACVRFPDHRLASGITPYIRAQYACIPTHPYGMNFIKAWNNGNGVMSKSDRDLFPSEGKTRTSDASVGWKRLNPKTLFPTVTTTSNPSDARMGPGLHWDEDRPYTVQEMRRAQGYLDEEVLVGRTTDQWKLVGNSVSRHMALAIGLKFREAWLGTLYD	marked decrease of the DNA methylation activity	1.971	1.588	1.581
DIM2E649A: DIM2 with mutation in the BAH1 domain (E649A) (protein, left off: His6, N-terminal, cleaved | MBP, N-terminal, cleaved) MDSPDRSHGGMFIDVPAETMGFQEDYLDMFASVLSQGLAKEGDYAHHQPLPAGKEECLEPIAVATTITPSPDDPQLQLQLELEQQFQTESGLNGVDPAPAPESEDEADLPDGFSDESPDDDFVVQRSKHITVDLPVSTLINPRSTFQRIDENDNLVPPPQSTPERVAVEDLLKAAKAAGKNKEDYIEFELHDFNFYVNYAYHPQEMRPIQLVATKVLHDKYYFDGVLKYGNTKHYVTGMQVLELPVGNYGASLHSVKGQIWVRSKHNAKKEIYYLLKKPAFEYQRYYQPFLWIADLGKHVVDYCTRMVERKREVTLGCFKSDFIQWASKAHGKSKAFQNWRAQHPSDDFRTSVAANIGYIWKEINGVAGAKRAAGDQLFRELMIVKPGQYFRQEVPPGPVVTEGDRTVAATIVTPYIKECFGHMILGKVLRLAGEDAEKEKEVKLAKRLKIENKNATKADTKDDMKNDTATESLPTPLRSLPVQVLEATPIESDIVSIVSSDLPPSENNPPPLTNGSVKPKAKANPKPKPSTQPLHAAHVKYLSQELVNKIKVGDVISTPRDDSSNTDTKWKPTDTDDHRWFGLVQRVHTAKTKSSGRGLNSKSFDVIWFYRPEDTPCCAMKYKWRNELFLSNHCTCQEGHHARVKGNAVLAVHPVDWFGTPESNKGEFFVRQLYESEQRRWITLQKDHLTCYHNQPPKPPTAPYKPGDTVLATLSPSDKFSDPYEVVEYFTQGEKETAFVRLRKLLRRRKVDRQDAPANELVYTEDLVDVRAERIVGKCIMRCFRPDERVPSPYDRGGTGNMFFITHRQDHGRCVPLDTLPPTLRQGFNPLGNLGKPKLRGMDLYCGGGNFGRGLEEGGVVEMRWANDIWDKAIHTYMANTPDPNKTNPFLGSVDDLLRLALEGKFSDNVPRPGEVDFIAAGSPCPGFSLLTQDKKVLNQVKNQSLVASFASFVDFYRPKYGVLENVSGIVQTFVNRKQDVLSQLFCALVGMGYQAQLILGDAWAHGAPQSRERVFLYFAAPGLPLPDPPLPSHSHYRVKNRNIGFLCNGESYVQRSFIPTAFKFVSAGEGTADLPKIGDGKPDACVRFPDHRLASGITPYIRAQYACIPTHPYGMNFIKAWNNGNGVMSKSDRDLFPSEGKTRTSDASVGWKRLNPKTLFPTVTTTSNPSDARMGPGLHWDEDRPYTVQEMRRAQGYLDEEVLVGRTTDQWKLVGNSVSRHMALAIGLKFREAWLGTLYD	marked decrease of the DNA methylation activity	3.26	3.183	3.28
